Test results reported in patent US20120094356A1.

Biological target: trypsin
Assay: trypsin inhibition assay, 10 nM each, chromogenic substrate; Ka calculated

Ka: 7.5e+08 M⁻¹
Substance: human growth hormone/alpha-1 antitrypsin fusion [T109wt: α1AT/hGH]
